Measurements reported in PMC9582512.
Where two headings read alike, the source gives them in different places.

Legend:
[1] = biological target: human recombinant biotinylated FcγRIIb (CD32b) (human) (UniProt P31994); experiment: BLI
[2] = biological target: human recombinant biotinylated FcγRIIb (CD32b) (human) (UniProt P31994); experiment: BLI; remark: listed apart in the source

Sequence of recombinant anti-Fel d 1 monoclonal antibody F127, human IgG4 format (P01861 whole entry, looked up): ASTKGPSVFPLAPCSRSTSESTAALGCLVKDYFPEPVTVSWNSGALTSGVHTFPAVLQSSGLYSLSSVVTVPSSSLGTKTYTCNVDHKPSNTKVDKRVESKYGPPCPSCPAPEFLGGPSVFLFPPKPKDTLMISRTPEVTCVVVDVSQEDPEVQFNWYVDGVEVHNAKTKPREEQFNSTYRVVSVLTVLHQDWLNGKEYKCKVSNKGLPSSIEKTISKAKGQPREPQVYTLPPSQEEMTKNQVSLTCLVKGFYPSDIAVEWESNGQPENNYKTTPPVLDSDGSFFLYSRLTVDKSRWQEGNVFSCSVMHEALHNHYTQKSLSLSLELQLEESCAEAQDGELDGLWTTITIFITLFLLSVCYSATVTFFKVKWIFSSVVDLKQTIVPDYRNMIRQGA
Sequence of human recombinant biotinylated FcγRIIb (CD32b) (human) (P31994 43-217): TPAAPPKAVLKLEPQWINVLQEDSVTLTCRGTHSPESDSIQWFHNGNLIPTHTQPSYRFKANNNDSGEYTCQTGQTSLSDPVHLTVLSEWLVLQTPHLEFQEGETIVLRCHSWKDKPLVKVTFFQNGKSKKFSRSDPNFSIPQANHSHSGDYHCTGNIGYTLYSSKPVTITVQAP
Sequence of recombinant anti-Fel d 1 monoclonal antibody G078, human IgG4 format (P01861 whole entry, looked up): as the sequence (P01861 whole entry, looked up) above
Sequence of recombinant anti-Fel d 1 monoclonal antibody A044, human IgG4 format (P01861 whole entry, looked up): as above
Sequence of native human IgG4 (P01861 whole entry, looked up): as above

| Substance | Kd [1] [nM] | koff [1] [s⁻¹] | koff [2] [s⁻¹] |
| --- | --- | --- | --- |
| native human IgG4 (from UniProt P01861) | 31 | 0.002 | – |
| recombinant anti-Fel d 1 monoclonal antibody F127, human IgG1 format (from UniProt P01857) | 27 | – | – |
| recombinant anti-Fel d 1 monoclonal antibody F127, human IgG4 format (from UniProt P01861) | 27 | 0.0014 | 0.00126 |
| recombinant anti-Fel d 1 monoclonal antibody G078, human IgG4 format (from UniProt P01861) | 34 | 0.0016 | – |

Substances with a lower Kd [1], results first:

| Kd [1] [nM] | koff [1] [s⁻¹] | koff [2] [s⁻¹] | Substance |
| --- | --- | --- | --- |
| 18 | – | – | recombinant anti-Fel d 1 monoclonal antibody A044, human IgG1 format (from UniProt P01857) |
| 18 | 0.00081 | – | recombinant anti-Fel d 1 monoclonal antibody A044, human IgG4 format (from UniProt P01861) |
